Test results published in US11098109B2, “Single-chain variable fragment anti-CD133 antibodies and uses thereof” (REGENTS OF THE UNIVERSITY OF MINNESOTA, priority 2010, dated 2021).

Assays:
CD133 = target: T1, CD133 (Homo sapiens, UniProt O43490); assay: Western blot screening of hybridoma supernatants on Caco-2 lysates; format: binding; conditions: CD133^+ Caco-2 cell lysates
T1 construct: endogenous in cells
T1 sequence (O43490 20-865): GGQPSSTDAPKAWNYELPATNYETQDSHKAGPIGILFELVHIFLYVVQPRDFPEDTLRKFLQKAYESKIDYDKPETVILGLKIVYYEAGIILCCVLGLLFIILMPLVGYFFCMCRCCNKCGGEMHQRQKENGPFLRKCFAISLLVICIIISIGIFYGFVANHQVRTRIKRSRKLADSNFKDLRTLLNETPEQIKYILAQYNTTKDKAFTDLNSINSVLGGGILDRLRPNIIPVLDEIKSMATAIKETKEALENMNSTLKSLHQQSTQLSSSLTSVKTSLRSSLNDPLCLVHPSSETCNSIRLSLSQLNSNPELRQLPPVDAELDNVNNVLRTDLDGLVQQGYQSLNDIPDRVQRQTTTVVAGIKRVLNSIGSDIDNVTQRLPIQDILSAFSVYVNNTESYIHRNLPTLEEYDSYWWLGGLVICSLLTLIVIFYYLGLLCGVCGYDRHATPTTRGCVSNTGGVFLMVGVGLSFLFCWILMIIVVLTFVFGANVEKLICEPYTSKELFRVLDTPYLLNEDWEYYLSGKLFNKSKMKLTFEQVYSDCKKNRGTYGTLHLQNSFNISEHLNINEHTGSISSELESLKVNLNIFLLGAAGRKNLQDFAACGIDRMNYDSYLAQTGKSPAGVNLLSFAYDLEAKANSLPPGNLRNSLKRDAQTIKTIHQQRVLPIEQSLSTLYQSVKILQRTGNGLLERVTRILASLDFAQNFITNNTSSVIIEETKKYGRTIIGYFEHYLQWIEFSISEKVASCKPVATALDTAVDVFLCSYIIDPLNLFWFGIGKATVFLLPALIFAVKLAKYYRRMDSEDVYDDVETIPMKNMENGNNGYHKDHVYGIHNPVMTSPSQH
Method: FIG. 2: Analysis of the newly generated CD133 hybridoma. Supematants of hybridoma clones were tested as a primary antibody in western blot (A) and Immunofluorescence (B) assays. Pre-immunized serum (-ve) or post immune anti sera (a.s.) served as controls. For western blot, Caco-2 lysates normalized for protein concentration were loaded onto a SDS-PAGE gel, resolved, blotted onto a nitrocellulose membrane and cut into strips. Each strip was probed with supernatant from the identified hybridoma. Membrane in Lane 1 was probed with a commercially available antibody (ab 19898, Abcam) and served as an additional positive control. For immunofluorescence, Caco-2 cells were fixed and immunostained with the hybridoma supernatants. A commercially available antibody (293C3, Militenyi) was used as additional positive control. Scale bars in the panel represent 200 micrometers. Supernatant of Hybridoma Clone 7 was used in the immunohistochemical analysis of primary glioblastoma and kidney tissue (C).
Caco-2 cells were lysed in RIPA buffer (Thermo Scientific, Waltham. Mass.) and centrifuged at 10,000 rpm and 4° C. to remove debris. The protein concentration of cell lysates was measured using BCA protein assay kit (Thermo Scientific, Waltham, Mass.), with bovine serum albumin as the standard. […]

human prominin-1 = target: T2, human prominin-1 (Homo sapiens, UniProt O43490, DEL381-611); assay: ELISA of hybridoma supernatant on recombinant C-prominin-1; format: binding; conditions: supernatant at 1:1, 1:10, 1:100, 1:500 dilution
T2 construct: His-tag (6xHis) (N); made in house
T2 sequence (O43490 with tags, fused parts or gaps DEL381-611): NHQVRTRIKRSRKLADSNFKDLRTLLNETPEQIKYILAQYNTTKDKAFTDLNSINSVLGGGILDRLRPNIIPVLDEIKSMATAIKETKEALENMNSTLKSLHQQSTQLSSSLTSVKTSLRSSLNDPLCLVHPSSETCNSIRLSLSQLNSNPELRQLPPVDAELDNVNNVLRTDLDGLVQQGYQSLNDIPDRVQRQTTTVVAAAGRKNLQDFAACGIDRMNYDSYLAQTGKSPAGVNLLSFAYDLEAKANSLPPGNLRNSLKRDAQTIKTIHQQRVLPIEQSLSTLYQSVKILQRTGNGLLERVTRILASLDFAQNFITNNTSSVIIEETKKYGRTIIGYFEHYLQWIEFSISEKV
Method: The hybridoma cells were cultured in DMEM with 10% FBS. When the cells were confluent, they were grown for additional 2-3 days. The supernatant was harvested for ELISA. The recombinant C-prominin-1 protein was coated at a 1:1000 dilution in 96-well plate and incubated at 4° C. ovemight. The coating buffer was discarded, the protein was washed 1 time, 300 μl/well of 5% milk buffer was added, and incubated at 4° C. overnight.
The hybridoma supernatant was diluted with 5% milk buffer at 1:1, 1:10, 1:100, 1:500 and 50 μL/well was added and incubated at 37° C. for one hour. The wells were washed four times, and 50 μL/well goat anti-mouse secondary antibody-HOURP conjugate was added at a dilution of 1:2000 and incubated at 37° C. for one hour. Washed four times, and added 50 μL/well substrate.

B1: Hybridoma Clone 7: monoclonal antibody produced by Hybridoma Clone 7 that specifically binds to human CD133 (antibody, V domains shown)
VL: DIVLSQSPAIMSASPGEKVTISCSASSSVSYMYWYQQKPGSSPKPWIYRTSNLASGVPARFSGSGSGTSYSLTISSMEAEDAATYYCQQYHSYPPTFGAGTKLELK
VH: LEVKLVESGPELKKPGETVKISCKASGYTFTDYSMHWVNQAPGKGLKWMGWINTETGEPSYADDFKGRFAFSLETSASTAYLQINNLKNEDTATYFCATDYGDYFDYWGQGTTLTVSS
Western blot band with hybridoma supernatant (CD133): distinct band corresponding to the predicted molecular weight of CD133 | reaction of supernatant with human prominin-1 in ELISA (human prominin-1): binds its antigen with high specificity and affinity
